Laboratory results taken from patent US20250276075A1, “METHODS OF TREATING AXL-EXPRESSING CANCERS WITH ANTI-AXL ANTIBODIES, ANTIBODY FRAGMENTS AND THEIR IMMUNOCONJUGATES” (BIOATLA, INC., priority 2020, published 2025).

T1: Axl (Homo sapiens, UniProt P30530)
T1 sequence (P30530 26-451 limits assumed): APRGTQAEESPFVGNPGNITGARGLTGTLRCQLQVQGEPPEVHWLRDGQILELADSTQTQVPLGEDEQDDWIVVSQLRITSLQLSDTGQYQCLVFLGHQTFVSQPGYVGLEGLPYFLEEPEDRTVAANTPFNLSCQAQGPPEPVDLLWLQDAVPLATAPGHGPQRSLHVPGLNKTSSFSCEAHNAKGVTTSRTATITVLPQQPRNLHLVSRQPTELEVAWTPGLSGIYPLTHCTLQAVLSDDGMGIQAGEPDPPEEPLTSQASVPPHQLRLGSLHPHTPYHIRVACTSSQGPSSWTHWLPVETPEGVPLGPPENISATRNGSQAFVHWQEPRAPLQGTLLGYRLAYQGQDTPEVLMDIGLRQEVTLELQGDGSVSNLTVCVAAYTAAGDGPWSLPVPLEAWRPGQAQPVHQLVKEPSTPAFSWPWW


Experiments:
Axl [1] = molecular target: Axl (UniProt P30530); assay: ELISA, 1:3 dilution
Axl [2] = molecular target: T1, Axl; assay: Affinity ELISA of CPE mutant antibodies for binding to Axl at pH 6.0 over pH 7.4; conditions: heavy chain variable region mutants
Procedure, shortened: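 Single-point mutant anti-Axl antibody library (CPE) screened by ELISA for binding at pH 6.0 versus pH 7.4, at 1:3 and 1:9 antibody dilutions, in serum with FLAG-tag detection and carbonate (Krebs-Ringer) buffer. Selection criterion: pH 6.0/pH 7.4 binding ratio ≥1.5 at either dilution.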

Axl [3] = molecular target: Axl (UniProt P30530); assay: ELISA, 1:9 dilution
A549 cells = assay: Conditional cell killing by CAB-Axl-ADC (model toxin) at pH 6.0 and 7.4; type: cell-based; conditions: FIG. 11
From the text: The anti-Axl antibody of the present invention was conjugated to a model toxin (e.g., gemcitabine) to produce a conditionally active antibody-drug conjugate (CAB-Axl-ADC). The CAB-Axl-ADC was first tested to confirm that the conditional cell killing activity was not altered by the drug conjugation process.

[4] = system: MiaPaCa2 xenograft tumors; assay: MiaPaCa2 xenograft tumor study in mice; type: in vivo; conditions: 1 mg/kg twice weekly for 3 weeks; in comparison with the controls
Protocol: The CAB-Axl-ADC was then injected into mice bearing MiaPaCa2 xenograft tumors at a dose of 1 mg/kg twice weekly for 3 weeks. Several controls were used in this study, including naked CAB (anti-Axl antibody with no conjugation), vehicle, the toxin alone (unconjugated gemcitable), control ADC, an affinity matching anti-Axl ADC (AM ADC).

Molecule	Affinity ELISA CPE mutant ratio (1:3, pH 6.0/7.4) (Axl [1])	Affinity ELISA CPE mutant ratio (1:3, pH 6.0/7.4) (Axl [2]; 1:3 dilution)	Affinity ELISA CPE mutant ratio (1:9, pH 6.0/7.4) (Axl [2]; 1:9 dilution)	Affinity ELISA CPE mutant ratio (1:9, pH 6.0/7.4) (Axl [3])	cell killing at pH 6.0 versus pH 7.4 (A549 cells)	reduction in the size of the tumor [4]
HC-G111H (antibody, V domains shown) VH: EVQLVQSGAEVKKPGATVKISCKVSGYSFTGHTMNWIRQPPGKGLEWIGLIKPSNGGTSYNQKFKGRVTISADKSISTAYLQWSSLKASDTAMYYCAHGHYESYFAMDYWHQGTLVTVSS VL: DIQMTQSPSSLSASVGDRVTITCKASQDVSSAVAWYQQKPGQAPRLLIYWASTRHTGVPSRFSGSGSGTEFTLTISSLQPDDFATYYCQEHFSTPLTFGQGTKVEIK	1.06	1.058	1.786	1.79	–	–
CAB-Axl-ADC: anti-Axl antibody conjugated to a model toxin (e.g., gemcitabine), conditionally active antibody-drug conjugate (conjugate) VH: EVQLVQSGAEVKKPGATVKISCKVSGYSFWGATMNWIRQPPGKGLEWIGLIKPSNGGTSYNQKFKGRVTISADKSISTAYLQWSSLKASDTAMYYCAHGHYESYEAMDYWGQGTLVTVSS VL: DIQMTQSPSSLSASVGDRVTITCKASQDVVSAVAWYQQKPGQAPRLLIYWQDTRHTGVPSRFSGSGSGTEFTLTISSLQPDDFATYYCQEHFSPPLTFGQGTKVEIK	–	–	–	–	killed significantly more cells at pH 6.0 than at pH 7.4	significantly greater reduction in the size of the tumor
